12 molecules from paper PMC9335864 (Journal of the American Chemical Society, 2022) can be followed below.

The target of assay [1] is T1, p47-UBX domain (Homo sapiens, biotin (site not stated) where anchored on the BLI sensor tip).
T1 chain: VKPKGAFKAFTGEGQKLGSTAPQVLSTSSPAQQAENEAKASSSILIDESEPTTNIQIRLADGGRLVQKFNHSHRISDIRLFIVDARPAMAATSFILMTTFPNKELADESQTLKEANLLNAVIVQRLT

For the next assay, the target named is p47 (endogenous) (human (endogenous in U2OS), UniProt Q9UNZ2). In words: co-IP; co-IP of p47 from lysates of U2OS cells transfected with plasmids for HA-tagged antibody fragments; p47-containing complexes captured and blotted. The note with it: partners not purified.
Another assay addresses T2, p37-UBX domain (Homo sapiens).
T2 chain: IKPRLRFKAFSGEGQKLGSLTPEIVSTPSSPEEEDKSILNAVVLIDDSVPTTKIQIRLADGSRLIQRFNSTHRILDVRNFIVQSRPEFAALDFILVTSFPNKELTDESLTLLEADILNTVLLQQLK
In words: BLI; selectivity of the scFvs against the p97-binding domains of other adaptor proteins (NPL4-UBXL, FAF1-UBX, p37-UBX) beside p47-UBX; set-up not told in the main text. To be noted: both partners purified. A general note: BLI is a label-free optical method that tracks binding on a fibre tip over time.

Assay [2] addresses T1, p47-UBX domain. Put plainly: BLI; biotinylated p47-UBX anchored on the sensor tip; increasing amounts of each scFv; dose-response profiles. The note with it: both partners purified.
A further assay has as its target full-length p47 (human, UniProt Q9UNZ2). In words: SPR; competition: as for p47-UBX but with full-length p47 on immobilised p97 (Figure S7). The note with it: both partners purified. For orientation: SPR reads the build-up and loss of mass on a sensor chip optically.
For a further assay, the target named is full-length human p97 (human, UniProt P55072 1-806, biotin (site not stated)). Described as above. To be noted: both partners purified.
Assay [3] deals with T1, p47-UBX domain. In words: SPR; competition: biotinylated full-length p97 on a streptavidin chip; mixture of increasing concentrations of scFv and a fixed concentration of p47-UBX flowed over; with 100 uM ATP or 100 uM ADP. To be noted: both partners purified.
Assay [4] addresses T3, C-terminal Halo-tagged p47-UBX domain (Homo sapiens).
T3 chain: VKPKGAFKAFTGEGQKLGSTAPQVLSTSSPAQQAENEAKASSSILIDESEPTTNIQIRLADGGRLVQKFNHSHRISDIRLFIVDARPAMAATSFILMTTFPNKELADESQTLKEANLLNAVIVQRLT
In words: FRET or BRET; NanoBRET in p47-knockout U2OS cells: Nanoluciferase-p97-N donor, p47-UBX-HaloTag acceptor, co-transfected with antibody-fragment or p47-FLAG plasmids; compared with scFv-RNase and scFab-RNase controls. The note with it: partners not purified.

Another assay deals with p97 (endogenous) (human (endogenous in U2OS), UniProt P55072). In words: co-IP; co-IP of p97 from U2OS cells expressing scFv-A06 (Figure S10). To be noted: partners not purified.

Like-named read-outs stand apart in the source and are kept apart here.

Sequence of p97 (endogenous) (P55072 whole entry): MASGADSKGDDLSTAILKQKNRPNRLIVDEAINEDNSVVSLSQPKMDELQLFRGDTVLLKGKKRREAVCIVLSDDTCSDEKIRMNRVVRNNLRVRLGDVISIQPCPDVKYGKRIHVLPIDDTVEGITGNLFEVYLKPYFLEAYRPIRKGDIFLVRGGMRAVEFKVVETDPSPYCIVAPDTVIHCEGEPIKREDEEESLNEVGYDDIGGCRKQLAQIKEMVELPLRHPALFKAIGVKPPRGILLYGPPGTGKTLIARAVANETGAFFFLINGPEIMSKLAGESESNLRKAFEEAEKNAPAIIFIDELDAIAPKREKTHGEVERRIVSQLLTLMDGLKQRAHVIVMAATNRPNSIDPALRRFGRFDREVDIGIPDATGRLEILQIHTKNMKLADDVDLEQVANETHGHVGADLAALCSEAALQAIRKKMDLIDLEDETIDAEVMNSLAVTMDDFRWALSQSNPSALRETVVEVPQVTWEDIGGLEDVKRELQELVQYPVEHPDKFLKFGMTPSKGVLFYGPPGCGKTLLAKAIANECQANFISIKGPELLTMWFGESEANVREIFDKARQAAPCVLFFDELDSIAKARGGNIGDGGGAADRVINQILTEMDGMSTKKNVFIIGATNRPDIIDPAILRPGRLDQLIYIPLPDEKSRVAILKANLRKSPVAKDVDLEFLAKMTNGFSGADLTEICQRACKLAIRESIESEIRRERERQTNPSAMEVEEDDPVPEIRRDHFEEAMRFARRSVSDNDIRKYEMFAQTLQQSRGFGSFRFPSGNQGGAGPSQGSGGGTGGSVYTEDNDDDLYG
Sequence of full-length human p97 (P55072 whole entry, the tested form may be a part): as the sequence (P55072 whole entry) above

B1: scFv-A04 (antibody, V domains shown)
VH: QVQLVESGGGLVQPGGSLRLSCAASGFNVYSSSIHWVRQAPGKGLEWVASIYPSYGSTYYADSVKGRFTISADTSKNTAYLQMNSLRAEDTAVYYCARSYEWKYSYYRGGFDYWGQGTLVTVSS
VL: DIQMTQSPSSLSASVGDRVTITCRASQSVSSAVAWYQQKPGKAPKLLIYSASSLYSGVPSRFSGSRSGTDFTLTISSLQPEDFATYYCQQGYYLPVTFGQGTKVEIK
For B1, in the assay with p47-UBX domain [1], the binding result was “binds”.

B2: scFab-NLS E04 with C-terminal HA tag, expressed in cells (Fab, V domains shown)
VH: EVQLVESGGGLVQPGGSLRLSCAASGFNFSSYSIHWVRQAPGKGLEWVASISPYYGSTYYADSVKGRFTISADTSKNTAYLQMNSLRAEDTAVYYCARYKYYMSGRYTWALDYWGQGTLVTVSS
VL: DIQMTQSPSSLSASVGDRVTITCRASQSVSSAVAWYQQKPGKAPKLLIYSASSLYSGVPSRFSGSRSGTDFTLTISSLQPEDFATYYCQQEFFVPFTFGQGTKVEIK
With B2, the binding result in the assay with p47 (endogenous) is given as “binds”.

B3: scFv-E04 (scFv, V domains shown)
VH: QVQLVESGGGLVQPGGSLRLSCAASGFNFSSYSIHWVRQAPGKGLEWVASISPYYGSTYYADSVKGRFTISADTSKNTAYLQMNSLRAEDTAVYYCARYKYYMSGRYTWALDYWGQGTLVTVSS
VL: DIQMTQSPSSLSASVGDRVTITCRASQSVSSAVAWYQQKPGKAPKLLIYSASSLYSGVPSRFSGSRSGTDFTLTISSLQPEDFATYYCQQEFFVPFTFGQGTKVEIK
As a reminder, the Kd is a measure of binding affinity in units of concentration. As for B3, the Kd was around 4 nM with p37-UBX domain and around 7 nM with p47-UBX domain [2]. The binding result with full-length p47 is given as “binds”.

B4: scFv-E04 with C-terminal HA tag, expressed in cells (scFv, V domains shown)
VH: QVQLVESGGGLVQPGGSLRLSCAASGFNFSSYSIHWVRQAPGKGLEWVASISPYYGSTYYADSVKGRFTISADTSKNTAYLQMNSLRAEDTAVYYCARYKYYMSGRYTWALDYWGQGTLVTVSS
VL: DIQMTQSPSSLSASVGDRVTITCRASQSVSSAVAWYQQKPGKAPKLLIYSASSLYSGVPSRFSGSRSGTDFTLTISSLQPEDFATYYCQQEFFVPFTFGQGTKVEIK
B4: the binding result with p47 (endogenous) was “binds”.

B5: scFab-E04 with C-terminal HA tag, expressed in cells (Fab, V domains shown)
VH: EVQLVESGGGLVQPGGSLRLSCAASGFNFSSYSIHWVRQAPGKGLEWVASISPYYGSTYYADSVKGRFTISADTSKNTAYLQMNSLRAEDTAVYYCARYKYYMSGRYTWALDYWGQGTLVTVSS
VL: DIQMTQSPSSLSASVGDRVTITCRASQSVSSAVAWYQQKPGKAPKLLIYSASSLYSGVPSRFSGSRSGTDFTLTISSLQPEDFATYYCQQEFFVPFTFGQGTKVEIK
On to B5, for which the binding result with p47 (endogenous) is recorded as “binds”.

B6: full-length p47 (natural protein, human, UniProt Q9UNZ2 1-370, looked up)
chain: MAAERQEALREFVAVTGAEEDRARFFLESAGWDLQIALASFYEDGGDEDIVTISQATPSSVSRGTAPSDNRVTSFRDLIHDQDEDEEEEEGQRFYAGGSERSGQQIVGPPRKKSPNELVDDLFKGAKEHGAVAVERVTKSPGETSKPRPFAGGGYRLGAAPEEESAYVAGEKRQHSSQDVHVVLKLWKSGFSLDNGELRSYQDPSNAQFLESIRRGEVPAELRRLAHGGQVNLDMEDHRDEDFVKPKGAFKAFTGEGQKLGSTAPQVLSTSSPAQQAENEAKASSSILIDESEPTTNIQIRLADGGRLVQKFNHSHRISDIRLFIVDARPAMAATSFILMTTFPNKELADESQTLKEANLLNAVIVQRLT
In the case of B6, the binding result with full-length human p97 was “binds”.

B7: scFv-G08 (scFv, V domains shown)
VH: QVQLVESGGGLVQPGGSLRLSCAASGFNISYSYIHWVRQAPGKGLEWVAYIYPYSGSTYYADSVKGRFTISADTSKNTAYLQMNSLRAEDTAVYYCARDPHWAMDYWGQGTLVTVSS
VL: DIQMTQSPSSLSASVGDRVTITCRASQSVGSALAWYQQKPGKAPKLLIYSASSLYSGVPSRFSGSRSGTDFTLTISSLQPEDFATYYCQQSFSSVPFTFGQGTKVEIK
For B7, the binding result in the assay with p47-UBX domain [3] and with full-length p47 was “binds” in each case.

B8: scFv-A06 (scFv, V domains shown)
VH: QVQLVESGGGLVQPGGSLRLSCAASGFNISSYSMHWVRQAPGKGLEWVASISSSYGSTYYADSVKGRFTISADTSKNTAYLQMNSLRAEDTAVYYCARSDWYYGDAWGVPYYAFDYWGQGTLVTVSS
VL: DIQMTQSPSSLSASVGDRVTITCRASQSVGSALAWYQQKPGKAPKLLIYSASSLYSGVPSRFSGSRSGTDFTLTISSLQPEDFATYYCQQSWFLITFGQGTKVEIK
Consider B8, for which the binding result is on record as “no binding” in the assay with p37-UBX domain and “binds” with full-length p47. For the same molecule, the dissociation constant (Kd) with p47-UBX domain [2] was around 3 nM.

B9: scFv-A06 with C-terminal HA tag, expressed in cells (scFv, V domains shown)
VH: QVQLVESGGGLVQPGGSLRLSCAASGFNISSYSMHWVRQAPGKGLEWVASISSSYGSTYYADSVKGRFTISADTSKNTAYLQMNSLRAEDTAVYYCARSDWYYGDAWGVPYYAFDYWGQGTLVTVSS
VL: DIQMTQSPSSLSASVGDRVTITCRASQSVGSALAWYQQKPGKAPKLLIYSASSLYSGVPSRFSGSRSGTDFTLTISSLQPEDFATYYCQQSWFLITFGQGTKVEIK
B9: the “reduction of the BRET ratio of the p97-N/p47-UBX pair” value in [4] was around 15%. Besides, the binding result with p97 (endogenous) and with p47 (endogenous) was “binds” in each case.

B10: scFab-A06 with C-terminal HA tag, expressed in cells (Fab, V domains shown)
VH: EVQLVESGGGLVQPGGSLRLSCAASGFNISSYSMHWVRQAPGKGLEWVASISSSYGSTYYADSVKGRFTISADTSKNTAYLQMNSLRAEDTAVYYCARSDWYYGDAWGVPYYAFDYWGQGTLVTVSS
VL: DIQMTQSPSSLSASVGDRVTITCRASQSVGSALAWYQQKPGKAPKLLIYSASSLYSGVPSRFSGSRSGTDFTLTISSLQPEDFATYYCQQSWFLITFGQGTKVEIK
With B10, the binding result with p47 (endogenous) is given as “binds”.

B11: scFab-NLS A06 with C-terminal HA tag, expressed in cells (Fab, V domains shown)
VH: EVQLVESGGGLVQPGGSLRLSCAASGFNISSYSMHWVRQAPGKGLEWVASISSSYGSTYYADSVKGRFTISADTSKNTAYLQMNSLRAEDTAVYYCARSDWYYGDAWGVPYYAFDYWGQGTLVTVSS
VL: DIQMTQSPSSLSASVGDRVTITCRASQSVGSALAWYQQKPGKAPKLLIYSASSLYSGVPSRFSGSRSGTDFTLTISSLQPEDFATYYCQQSWFLITFGQGTKVEIK
For the molecule B11, in the assay with p47 (endogenous), the binding result is recorded as “binds”.

B12: scFv-B01 (scFv, V domains shown)
VH: QVQLVESGGGLVQPGGSLRLSCAASGFNISSYYMHWVRQAPGKGLEWVASIYPSYSSTSYADSVKGRFTISADTSKNTAYLQMNSLRAEDTAVYYCARSSDYDRYWYWSYDAFDYWGQGTLVTVSS
VL: DIQMTQSPSSLSASVGDRVTITCRASQSVGSALAWYQQKPGKAPKLLIYSASSLYSGVPSRFSGSRSGTDFTLTISSLQPEDFATYYCQQSWDLFTFGQGTKVEIK
With B12, the binding result in the assay with p47-UBX domain [3] and with full-length p47 was “binds” throughout.
